# Publication PMC9482650, “Quantitative fragmentomics allow affinity mapping of interactomes” (Nature Communications, 2022)
# Where a chain is given by its changes, count along the chain named.
# Target: T1, APBA2_2, Q99767
# T1 sequence (Q99767 654-744, limits assumed, looked up): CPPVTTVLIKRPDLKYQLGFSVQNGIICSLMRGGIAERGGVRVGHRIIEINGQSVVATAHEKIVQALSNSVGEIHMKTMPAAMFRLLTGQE
# Assay: holdup assay
# Parameters: key: below the threshold = too weak to quantify, mostly under pKd 3.1 to 4
# Details: plain residues with an end cap or a label only (N-terminal biotin on a linker: ado-ado)
row,Binder,pKd
1,"PTPDLPQTRV [KLHDC7A, Q5VTJ3]",below the threshold
2,"ARSAAASNYV [CLDN4, O14493]",below the threshold

# Target: T2, GRIP1_3, Q9Y3R0
# T2 sequence (Q9Y3R0 247-346, limits assumed, looked up): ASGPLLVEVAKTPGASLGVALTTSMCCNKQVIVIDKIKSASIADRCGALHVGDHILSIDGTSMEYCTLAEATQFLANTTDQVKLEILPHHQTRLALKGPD
# Assay: holdup assay
# Parameters: key: below the threshold = too weak to quantify, mostly under pKd 3.1 to 4
# Details: plain residues with an end cap or a label only (N-terminal biotin on a linker: ado-ado)
row,Binder,pKd
1,"PTPDLPQTRV [KLHDC7A, Q5VTJ3]",below the threshold
2,"ARSAAASNYV [CLDN4, O14493]",below the threshold

# Target: T3, APBA1_1, Q02410
# T3 sequence (Q02410 651-752, limits assumed, looked up): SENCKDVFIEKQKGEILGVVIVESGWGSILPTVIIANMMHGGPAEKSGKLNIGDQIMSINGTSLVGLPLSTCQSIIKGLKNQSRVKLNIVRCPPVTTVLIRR
# Assay: holdup assay
# Parameters: key: below the threshold = too weak to quantify, mostly under pKd 3.1 to 4
# Details: plain residues with an end cap or a label only (N-terminal biotin on a linker: ado-ado)
row,Binder,pKd
1,"PTPDLPQTRV [KLHDC7A, Q5VTJ3]",below the threshold
2,"ARSAAASNYV [CLDN4, O14493]",below the threshold

# Target: T4, SNTG2, Q9NY99
# T4 sequence (Q9NY99 68-166, limits assumed, looked up): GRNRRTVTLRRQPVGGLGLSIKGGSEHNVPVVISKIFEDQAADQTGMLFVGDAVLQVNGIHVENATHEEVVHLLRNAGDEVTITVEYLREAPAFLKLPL
# Assay: holdup assay
# Parameters: key: below the threshold = too weak to quantify, mostly under pKd 3.1 to 4
# Details: plain residues with an end cap or a label only (N-terminal biotin on a linker: ado-ado)
row,Binder,pKd
1,"PTPDLPQTRV [KLHDC7A, Q5VTJ3]",5.24
2,"ARSAAASNYV [CLDN4, O14493]",below the threshold

# Target: T5, APBA1_2, Q02410
# T5 sequence (Q02410 742-832, limits assumed, looked up): T1 sequence (Q99767 654-744, limits assumed, looked up) with K10R, K15R, A59P, Q65H, A66I, S70A, F84Y, G89A
# Assay: holdup assay
# Parameters: key: below the threshold = too weak to quantify, mostly under pKd 3.1 to 4
# Details: plain residues with an end cap or a label only (N-terminal biotin on a linker: ado-ado)
row,Binder,pKd
1,"PTPDLPQTRV [KLHDC7A, Q5VTJ3]",3.54
2,"ARSAAASNYV [CLDN4, O14493]",3.83

# Target: MAST1, Q9Y2H9
# Sequence (Q9Y2H9 962-1065): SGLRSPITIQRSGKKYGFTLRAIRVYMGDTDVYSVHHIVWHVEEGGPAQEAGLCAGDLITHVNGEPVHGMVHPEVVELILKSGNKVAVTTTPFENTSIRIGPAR
# Assay: holdup assay
# Parameters: key: below the threshold = too weak to quantify, mostly under pKd 3.1 to 4
# Details: plain residues with an end cap or a label only (N-terminal biotin on a linker: ado-ado)
row,Binder,pKd
1,"PTPDLPQTRV [KLHDC7A, Q5VTJ3]",4.58
2,"ARSAAASNYV [CLDN4, O14493]",3.66

# Target: PARD3_3, Q8TEW0
# Sequence (Q8TEW0 582-685): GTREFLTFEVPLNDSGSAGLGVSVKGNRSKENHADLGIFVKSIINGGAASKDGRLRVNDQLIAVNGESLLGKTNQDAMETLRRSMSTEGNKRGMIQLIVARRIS
# Assay: holdup assay
# Parameters: key: below the threshold = too weak to quantify, mostly under pKd 3.1 to 4
# Details: plain residues with an end cap or a label only (N-terminal biotin on a linker: ado-ado)
row,Binder,pKd
1,"PTPDLPQTRV [KLHDC7A, Q5VTJ3]",below the threshold
2,"ARSAAASNYV [CLDN4, O14493]",3.51

# Target: T6, PDZD7_3, Q9H5P4
# T6 sequence (Q9H5P4 857-944, limits assumed, looked up): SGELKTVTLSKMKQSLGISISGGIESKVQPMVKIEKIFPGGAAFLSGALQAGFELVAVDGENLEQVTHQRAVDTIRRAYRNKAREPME
# Assay: holdup assay
# Parameters: key: below the threshold = too weak to quantify, mostly under pKd 3.1 to 4
# Details: plain residues with an end cap or a label only (N-terminal biotin on a linker: ado-ado)
row,Binder,pKd
1,"PTPDLPQTRV [KLHDC7A, Q5VTJ3]",5.04
2,"ARSAAASNYV [CLDN4, O14493]",below the threshold

# Target: DLG5_1, Q8TDM6
# Sequence (Q8TDM6 617-713): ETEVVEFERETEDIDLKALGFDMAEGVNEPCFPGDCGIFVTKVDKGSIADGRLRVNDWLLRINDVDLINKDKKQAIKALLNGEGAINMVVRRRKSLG
# Assay: holdup assay
# Parameters: key: below the threshold = too weak to quantify, mostly under pKd 3.1 to 4
# Details: plain residues with an end cap or a label only (N-terminal biotin on a linker: ado-ado)
row,Binder,pKd
1,"PTPDLPQTRV [KLHDC7A, Q5VTJ3]",below the threshold
2,"ARSAAASNYV [CLDN4, O14493]",below the threshold

# Target: T7, HTRA4, P83105
# T7 sequence (P83105 378-476, limits assumed, looked up): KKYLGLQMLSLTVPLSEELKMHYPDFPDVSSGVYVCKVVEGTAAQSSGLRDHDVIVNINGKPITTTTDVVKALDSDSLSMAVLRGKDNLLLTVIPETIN
# Assay: holdup assay
# Parameters: key: below the threshold = too weak to quantify, mostly under pKd 3.1 to 4
# Details: plain residues with an end cap or a label only (N-terminal biotin on a linker: ado-ado)
row,Binder,pKd
1,"PTPDLPQTRV [KLHDC7A, Q5VTJ3]",3.87
2,"ARSAAASNYV [CLDN4, O14493]",3.98

# Target: IL16_1, Q14005
# Sequence (Q14005 210-306): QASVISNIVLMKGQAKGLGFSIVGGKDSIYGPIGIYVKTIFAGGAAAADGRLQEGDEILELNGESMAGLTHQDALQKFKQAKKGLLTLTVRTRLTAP
# Assay: holdup assay
# Parameters: key: below the threshold = too weak to quantify, mostly under pKd 3.1 to 4
# Details: plain residues with an end cap or a label only (N-terminal biotin on a linker: ado-ado)
row,Binder,pKd
1,"PTPDLPQTRV [KLHDC7A, Q5VTJ3]",3.59
2,"ARSAAASNYV [CLDN4, O14493]",below the threshold

# Target: T8, DFNB31_1, Q9P202
# T8 sequence (Q9P202 135-233, limits assumed, looked up): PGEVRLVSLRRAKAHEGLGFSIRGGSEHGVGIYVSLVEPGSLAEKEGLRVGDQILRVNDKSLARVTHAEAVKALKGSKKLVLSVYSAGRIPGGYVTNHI
# Assay: holdup assay
# Parameters: key: below the threshold = too weak to quantify, mostly under pKd 3.1 to 4
# Details: plain residues with an end cap or a label only (N-terminal biotin on a linker: ado-ado)
row,Binder,pKd
1,"PTPDLPQTRV [KLHDC7A, Q5VTJ3]",4.79
2,"ARSAAASNYV [CLDN4, O14493]",below the threshold

# Target: DLG2_3, Q15700
# Assay: holdup assay
# Parameters: key: below the threshold = too weak to quantify, mostly under pKd 3.1 to 4
# Details: plain residues with an end cap or a label only (N-terminal biotin on a linker: ado-ado)
row,Binder,pKd
1,"PTPDLPQTRV [KLHDC7A, Q5VTJ3]",3.91
2,"ARSAAASNYV [CLDN4, O14493]",below the threshold

# Target: NHERF2_2, Q15599
# Sequence (Q15599 142-238): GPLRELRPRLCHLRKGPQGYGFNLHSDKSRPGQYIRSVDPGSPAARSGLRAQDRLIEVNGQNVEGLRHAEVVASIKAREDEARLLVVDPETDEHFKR
# Assay: holdup assay
# Parameters: key: below the threshold = too weak to quantify, mostly under pKd 3.1 to 4
# Details: plain residues with an end cap or a label only (N-terminal biotin on a linker: ado-ado)
row,Binder,pKd
1,"PTPDLPQTRV [KLHDC7A, Q5VTJ3]",below the threshold
2,"ARSAAASNYV [CLDN4, O14493]",below the threshold

# Target: IL16_3, Q14005
# Sequence (Q14005 1107-1207): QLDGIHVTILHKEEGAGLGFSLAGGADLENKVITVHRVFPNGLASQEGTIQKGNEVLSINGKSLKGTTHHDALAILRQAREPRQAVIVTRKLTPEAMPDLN
# Assay: holdup assay
# Parameters: key: below the threshold = too weak to quantify, mostly under pKd 3.1 to 4
# Details: plain residues with an end cap or a label only (N-terminal biotin on a linker: ado-ado)
row,Binder,pKd
1,"PTPDLPQTRV [KLHDC7A, Q5VTJ3]",below the threshold
2,"ARSAAASNYV [CLDN4, O14493]",below the threshold

# Target: T9, DLG3_3, Q92796
# T9 sequence (Q92796 374-475, limits assumed, looked up): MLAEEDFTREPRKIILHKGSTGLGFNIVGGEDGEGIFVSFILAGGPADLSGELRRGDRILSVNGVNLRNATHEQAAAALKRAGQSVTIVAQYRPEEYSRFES
# Assay: holdup assay
# Parameters: key: below the threshold = too weak to quantify, mostly under pKd 3.1 to 4
# Details: plain residues with an end cap or a label only (N-terminal biotin on a linker: ado-ado)
row,Binder,pKd
1,"PTPDLPQTRV [KLHDC7A, Q5VTJ3]",below the threshold
2,"ARSAAASNYV [CLDN4, O14493]",below the threshold

# Target: T10, GRIP1_4, Q9Y3R0
# T10 sequence (Q9Y3R0 467-571, limits assumed, looked up): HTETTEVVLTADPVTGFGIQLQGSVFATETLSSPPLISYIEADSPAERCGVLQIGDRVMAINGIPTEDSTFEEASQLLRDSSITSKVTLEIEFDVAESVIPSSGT
# Assay: holdup assay
# Parameters: key: below the threshold = too weak to quantify, mostly under pKd 3.1 to 4
# Details: plain residues with an end cap or a label only (N-terminal biotin on a linker: ado-ado)
row,Binder,pKd
1,"PTPDLPQTRV [KLHDC7A, Q5VTJ3]",below the threshold
2,"ARSAAASNYV [CLDN4, O14493]",below the threshold

# Target: T11, GRIP1_2, Q9Y3R0
# T11 sequence (Q9Y3R0 145-248, limits assumed, looked up): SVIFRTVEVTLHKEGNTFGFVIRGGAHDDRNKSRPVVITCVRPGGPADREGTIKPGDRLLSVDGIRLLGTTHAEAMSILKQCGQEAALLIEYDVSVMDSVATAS
# Assay: holdup assay
# Parameters: key: below the threshold = too weak to quantify, mostly under pKd 3.1 to 4
# Details: plain residues with an end cap or a label only (N-terminal biotin on a linker: ado-ado)
row,Binder,pKd
1,"PTPDLPQTRV [KLHDC7A, Q5VTJ3]",below the threshold
2,"ARSAAASNYV [CLDN4, O14493]",below the threshold

# Target: GRID2IP_2, A4D2P6
# Sequence (A4D2P6 272-370): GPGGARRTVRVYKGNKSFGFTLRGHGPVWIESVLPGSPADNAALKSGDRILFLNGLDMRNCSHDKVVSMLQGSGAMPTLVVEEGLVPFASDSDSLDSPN
# Assay: holdup assay
# Parameters: key: below the threshold = too weak to quantify, mostly under pKd 3.1 to 4
# Details: plain residues with an end cap or a label only (N-terminal biotin on a linker: ado-ado)
row,Binder,pKd
1,"PTPDLPQTRV [KLHDC7A, Q5VTJ3]",4.26
2,"ARSAAASNYV [CLDN4, O14493]",3.56

# Target: T12, MPP7, Q5T2T1
# T12 sequence (Q5T2T1 134-230, limits assumed, looked up): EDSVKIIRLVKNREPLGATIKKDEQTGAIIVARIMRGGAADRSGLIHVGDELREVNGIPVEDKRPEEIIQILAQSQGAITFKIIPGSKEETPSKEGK
# Assay: holdup assay
# Parameters: key: below the threshold = too weak to quantify, mostly under pKd 3.1 to 4
# Details: plain residues with an end cap or a label only (N-terminal biotin on a linker: ado-ado)
row,Binder,pKd
1,"PTPDLPQTRV [KLHDC7A, Q5VTJ3]",below the threshold
2,"ARSAAASNYV [CLDN4, O14493]",below the threshold

# Target: Inadl_4, Q8NI35
# Sequence (Q8NI35 547-651): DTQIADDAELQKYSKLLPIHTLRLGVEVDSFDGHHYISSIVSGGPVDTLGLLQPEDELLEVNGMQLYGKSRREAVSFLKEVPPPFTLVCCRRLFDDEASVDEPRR
# Assay: holdup assay
# Parameters: key: below the threshold = too weak to quantify, mostly under pKd 3.1 to 4
# Details: plain residues with an end cap or a label only (N-terminal biotin on a linker: ado-ado)
row,Binder,pKd
1,"PTPDLPQTRV [KLHDC7A, Q5VTJ3]",below the threshold
2,"ARSAAASNYV [CLDN4, O14493]",below the threshold

# Target: GRIP2_5, Q9C0E4
# Sequence (Q9C0E4 544-642): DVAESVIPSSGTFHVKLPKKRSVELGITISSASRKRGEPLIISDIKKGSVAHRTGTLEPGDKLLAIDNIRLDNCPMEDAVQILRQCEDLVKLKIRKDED
# Assay: holdup assay
# Parameters: key: below the threshold = too weak to quantify, mostly under pKd 3.1 to 4
# Details: plain residues with an end cap or a label only (N-terminal biotin on a linker: ado-ado)
row,Binder,pKd
1,"PTPDLPQTRV [KLHDC7A, Q5VTJ3]",below the threshold
2,"ARSAAASNYV [CLDN4, O14493]",below the threshold

# Target: T13, MPP6, Q9NZW5
# T13 sequence (Q9NZW5 125-219, limits assumed, looked up): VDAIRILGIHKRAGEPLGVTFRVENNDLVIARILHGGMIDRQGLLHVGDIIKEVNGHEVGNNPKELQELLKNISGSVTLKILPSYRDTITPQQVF
# Assay: holdup assay
# Parameters: key: below the threshold = too weak to quantify, mostly under pKd 3.1 to 4
# Details: plain residues with an end cap or a label only (N-terminal biotin on a linker: ado-ado)
row,Binder,pKd
1,"PTPDLPQTRV [KLHDC7A, Q5VTJ3]",below the threshold
2,"ARSAAASNYV [CLDN4, O14493]",below the threshold

# Target: T14, ARHGEF11, O15085
# T14 sequence (O15085 42-136, limits assumed, looked up): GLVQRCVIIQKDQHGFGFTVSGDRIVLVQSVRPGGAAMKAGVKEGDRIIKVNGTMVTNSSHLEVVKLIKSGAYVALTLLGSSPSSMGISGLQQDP
# Assay: holdup assay
# Parameters: key: below the threshold = too weak to quantify, mostly under pKd 3.1 to 4
# Details: plain residues with an end cap or a label only (N-terminal biotin on a linker: ado-ado)
row,Binder,pKd
1,"PTPDLPQTRV [KLHDC7A, Q5VTJ3]",4.16
2,"ARSAAASNYV [CLDN4, O14493]",3.8
